Source: patent US20220356239A1 (JIANGSU HENGRUI MEDICINE, published 2022)
Positions count from the first letter of the chain named.

T1: Human IL-5 amino acid sequence with his tag (rhIL-5-his) (human, UniProt P05113 20-134)
T1 sequence: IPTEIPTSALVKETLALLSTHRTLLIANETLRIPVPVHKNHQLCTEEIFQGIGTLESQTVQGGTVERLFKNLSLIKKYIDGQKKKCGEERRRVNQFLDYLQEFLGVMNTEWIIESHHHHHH

B1: Hu39D10 (antibody, human IgG4 S228P, kappa, V domains shown)
VH: EVQLVESGGGLVQPGGSLRLSCAVSGLSLTSNSVNWIRQAPGKGLEWVGLIWSNGDTDYNSAIKSRFTISRDTSKSTVYLQMNSLRAEDTAVYYCAREYYGYFDYWGQGTLVTVSS
VL: DIQMTQSPSSLSASVGDRVTITCLASEGISSYLAWYQQKPGKAPKLLIYGANSLQTGVPSRFSGSGSATDYTLTISSLQPEDFATYYCQQSYKFPNTFGQGTKVEVKR
B2: h1706-006 (antibody, human IgG1, kappa, V domains shown)
VH: EVQLVESGGGLVQPGGSLRLSCAASGFTFSHYYMAWVRQAPGKGLEWVSSINYEGNSAYYGDSVKGRFTISRDNSKNTLYLQMNSLRAEDTAVYYCATETLRESLDYWGQGTMVTVSS
VL: DIQMTQSPSSVSASVGDRVTITCRASQDIGNYLSWYQQKPGKSPKLLIYSASNLEVGVPSRFSGSGSGTDFTLTISSLQPEDFATYYCLQHKQFPRTFGGGTKVEIKR
B3: h1706-003 (antibody, human IgG1, kappa, V domains shown)
VH: B2 VH
VL: B2 VL with S43A
B4: h1706-009 (antibody, human IgG1, kappa, V domains shown)
VH: B2 VH
VL: B2 VL with L47M, F71Y, Y87F
B5: h1706-007 (antibody, human IgG1, kappa, V domains shown)
VH: B2 VH with S49T, V93T
VL: B2 VL
B6: h1773-007 (antibody, human IgG1, kappa, V domains shown)
VH: EVQLVESGGGLVQPGGSLKLSCAASGFTISNTYIHWVKQASGKGLEWIGRIDPAVGDTKHGPKFQGRFTISADDSKNTAYLQMNSLKTEDTAVYYCFRYGIYPDHWGQGTLVTVSS
VL: DIQLTQSPSSLSASVGDRVTITCSASSSVNYIYWYQQKPGKSPKPWIYLTATLASGVPSRFSGSGSGTDFTLTISSLQPEDFATYYCQQWNSYPYTFGGGTKVEIKR
B7: h1780-017 (antibody, human IgG1, kappa, V domains shown)
VH: EVQLVQSGAEVKKPGASVKVSCKASGYTFTEYLIHWVRQAPGQGLEWIGYINPYSGGTVYNEKFKSRATLTVDKSISTAYMEFSRLRSDDTAVYYCARDGGYSDPLDYWGQGTMVTVSS
VL: DTVLTQSPATLSLSPGERATLSCRASEGLTSYMHWYQQKPGQAPRLLIYKASNLASGVPARFSGSGSGTDFTLTISSLEPEDFATYFCQQNWNDPWTFGGGTKVEIKR
B8: h1779-014 (antibody, human IgG1, kappa, V domains shown)
VH: EVQLVQSGAEVKKPGASVKVSCKASGYTFTDYIIHWVKQAPGQGLEWIGYFNPNSGGSNYNENFKRKATMTADKSISTAYLEFSRLRSEDTAVYYCARRIAWDHWYFDFWGQGTMVTVSS
VL: DIQMTQSPSSLSASVGDRVTITCLASEGISNDVAWYQQKPGKSPKLLIYAASRLQDGVPSRFSGSGSGTDFTFTISSLQPEDIATYYCQQGYKTPLTFGQGTKLEIKR
notes: h1779_VH.1D + h1779_VL.1A; IgG1 (YTE) / kappa constant regions
B9: h1705-007 (antibody, human IgG1, kappa, V domains shown)
VH: B2 VH with N52S, N56D, S57I, A58T, T98S, E99Q, L105F, M113L
VL: B2 VL with G30A, S50G, A51T, G66R, H91D, Q93E
B10: h1705-004 (antibody, human IgG1, kappa, V domains shown)
VH: B2 VH with N52S, N56D, S57I, A58T, T98S, E99Q, L105F, M113L
VL: B2 VL with G30A, S43A, S50G, A51T, H91D, Q93E
B11: h1705-005 (antibody, human IgG1, kappa, V domains shown)
VH: B2 VH with S49T, N52S, N56D, S57I, A58T, V93T, T98S, E99Q, L105F, M113L
VL: B2 VL with G30A, S43A, S50G, A51T, H91D, Q93E
B12: h1705-008 (antibody, human IgG1, kappa, V domains shown)
VH: B2 VH with S49T, N52S, N56D, S57I, A58T, V93T, T98S, E99Q, L105F, M113L
VL: B2 VL with G30A, S50G, A51T, G66R, H91D, Q93E
B13: h1705-010 (antibody, human IgG1, kappa, V domains shown)
VH: B2 VH with N52S, N56D, S57I, A58T, T98S, E99Q, L105F, M113L
VL: B2 VL with G30A, L47V, S50G, A51T, G66R, T69S, F71Y, Y87F, H91D, Q93E
B14: h1705-011 (antibody, human IgG1, kappa, V domains shown)
VH: B2 VH with S49T, N52S, N56D, S57I, A58T, V93T, T98S, E99Q, L105F, M113L
VL: B2 VL with G30A, L47V, S50G, A51T, G66R, T69S, F71Y, Y87F, H91D, Q93E
B15: h1706-004 (antibody, human IgG1, kappa, V domains shown)
VH: B2 VH with S49T, V93T
VL: B2 VL with S43A

Each binder was assayed against T1, Human IL-5 amino acid sequence with his … (assay: cell-based or functional assay).

B1 and B2 are within 1.5-fold of each other in “IC50 of inhibition of IL-5-induced proliferation of TF1 cells” value (“IC50 of inhibition … of TF1 cells” for short): 0.3 nM for the first, 0.34 nM for the second.

B3 and B4 are within 1.5-fold of each other in “IC50 of inhibition … of TF1 cells” value: 0.31 nM for the first, 0.25 nM for the second.

B5 and B6 are within 1.5-fold of each other in “IC50 of inhibition … of TF1 cells” value: 0.28 nM for the first, 0.38 nM for the second.

B7 and B8 are within 1.5-fold of each other in “IC50 of inhibition … of TF1 cells” value: 0.16 nM for the first, 0.2 nM for the second.

B9 and B10 are within 1.5-fold of each other in “IC50 of inhibition … of TF1 cells” value: 0.25 nM for the first, 0.3 nM for the second.

B11 and B12 are within 1.5-fold of each other in “IC50 of inhibition … of TF1 cells” value: 0.3 nM for the first, 0.2 nM for the second.

B13 and B14 are within 1.5-fold of each other in “IC50 of inhibition … of TF1 cells” value: 0.3 nM for the first, 0.28 nM for the second.

B15 was tested, and the “IC50 of inhibition … of TF1 cells” value was 0.3 nM.

Molecular target: T1, Human IL-5 amino acid sequence with his …
Test: cell-based or functional assay
Remark: another data set of the same source

Compared with B1, B4 is 2.7-fold lower in “IC50 of blocking IL-5-induced eosinophil adhesion” value: 0.0118 µg/mL for the first, 0.0043 µg/mL for the second.

Compared with B7, B12 is 4.4-fold lower in “IC50 of blocking IL-5-induced eosinophil adhesion” value: 0.0212 µg/mL for the first, 0.00485 µg/mL for the second.

Each binder was assayed against T1, Human IL-5 amino acid sequence with his … (assay: FACS blocking of biotin-IL-5 binding to IL-5Rα/β CHO-S cells).
Method: Particular method: CHO-S-IL-5Rα and β were cultivated with CD-CHO containing […] and 25 ng/ml zeozin, and the concentration during cell culture was no more than 3×10⁶ cells/ml. The IL-5Rα/β-CHOS cells in good condition were centrifuged (1000 rpm, 5 min), washed once with 10% FBS in PBS, counted, the cell concentration was adjusted to 4×10⁶ cells/ml, and 25 μl of which was added to 96-well plate with round bottom. Antibodies to be tested were diluted with PBS solution containing 10% FBS, with an initial concentration of 200 μg/ml, and 8 gradients were obtained by 1:10 dilution. 25 μl of 100 ng/ml IL-5 labeled with Biotin Labeling Kit (Dojindo Chemical, LK03), was uniformly mixed with 50 μl of each diluted antibody, added into the 96-well plate to which the cells has been added, and incubated at 4° C. for 1 hour. After the incubation, centrifuged at 4° C. (400 g, 5 min), the supernatant was discarded, centrifuged and washed with 200 μl of pre-cooled PBS, repeat twice; PE-Avidin secondary antibody diluted at 1:1333 was added and incubated in darkness at […] for 40 min, the supernatant was discarded after being centrifuged at 4° C. […] The plate was read on instrument, and IC50 values for IL-5 antibodies to block the binding between IL-5 and IL-5Rα/β were calculated based on the fluorescence signal values.

In the case of B8, the IC50 is reported as 0.0496 µg/mL.

What follows are binders tested against T1, Human IL-5 amino acid sequence with his … (assay: Biacore T200 SPR, antibody captured on Protein A chip, antigen in flow, 1:1 Langmuir fit).
Method: The affinity between the test humanized IL-5 antibodies and human IL-5 was determined by using Biacore T200 (GE) instrument.
Molecules to be tested were affinity-captured by Protein A biosensor chip, and then the antigen (prepared in Example 1) was flowed through the surface of the chip, and the reaction signals were detected in real time by using Biacore T200 instrument to obtain binding and dissociation curves. After the dissociation of each cycle of experiment was completed, the biosensor chip was washed and regenerated with glycine-hydrochloric acid regeneration solution (pH 1.5). The data was fitted to the (1:1) Langmuir model by using BIAevaluation version 4.1 GE software, and the affinity values were obtained as shown in Table 14.

For B8, the Kd was 0.412 nM.
